Source: patent CN101671397A (UNIV SICHUAN, dated 2010)

What was measured:
[1] = biological target: T1, epidermal growth factor receptor (EGFR) on human lung cancer cell line A549 (human, UniProt P00533 25-1210); assay: flow cytometry on cells (A549), detected with rabbit antiserum and goat anti-rabbit IgG-FITC
T1 construct: whole, on cells; also called 表皮生长因子受体

[2] = biological target: T1, epidermal growth factor receptor (EGFR) …; assay: immunofluorescence and flow cytometry on A549 cells (summary)

| Binder | binding result [1] | binding result [2] |
| --- | --- | --- |
| recombinant Gelonin (重组Gelonin) (enzyme, also called rGel) GLDTVSFSTKGATYITYVNFLNELRVKLKPEGNSHGIPLLRKKCDDPGKCFVLVALSNDNGQLAEIAIDVTSVYVVGYQVRNRSYFFKDAPDAAYEGLFKNTIKTRLHFGGSYPSLEGEKAYRETTDLGIEPLRIGIKKLDENAIDNYKPTEIASSLLVVIQMVSEAARFTFIENQIRNNFQQRIRPANNTISLENKWGKLSFQIRTSGANGMFSEAVELERANGKKYYVTAVDQVKPKIALLKFVDKDPK | no binding (tested: 100umol/L) | – |
| SCFV(Anti-EGFR)/Gelonin recombinant immunotoxin (抗EGFR单链抗体融合Gelonin重组免疫毒素) (other, also called ScFv(Anti-EGFR)/rGel) EVQLQQSGAELMKPGASVKISCKATGYTFSSYWIEWVKQRPGHGLEWIGEILPGSKKTNYNEKFKGKATFTADTSSNTAYMQFSSLTSEDSAVYYCARYYYRNDDYGMDYWGQGTTVTVSSGGGGSGGGGSGGGGSDIVMSQSPKSMSMSVGERVTLTCKASENVVTYVSWYQQKPEQSPKLLIYGASNRYTGVPDRFTGSGSATDFTLTISSVQAEDLADYHCGQGCSYPYTFGGGTKLEIKGSGGGGSGGGGSGLDTVSFSTKGATYITYVNFLNELRVKLKPEGNSHGIPLLRKKCDDPGKCFVLVALSNDNGQLAEIAIDVTSVYVVGYQVRNRSYFFKDAPDAAYEGLFKNTIKTRLHFGGSYPSLEGEKAYRETTDLGIEPLRIGIKKLDENAIDNYKPTEIASSLLVVIQMVSEAARFTFIENQIRNNFQQRIRPANNTISLENKWGKLSFQIRTSGANGMFSEAVELERANGKKYYVTAVDQVKPKIALLKFVDKDPK | – | binds |
